Assay [1] concerns the target T1, Rhesus monkey LAG-3 (used as cynomolgus LAG-3) (Rhesus monkey (called cynomolgus in the …)).
T1 construct: extracellular domain
As to the kind of experiment: ELISA, coated antigen, VH at 10 µg/ml, anti-HIS HRP. The method, then:
(§1) To screen specificity by ELISA, antigens were coated at 1-5 ug/ml and blocked with Marvel milk powder. VH were added at 10 μg/ml and incubated for 1 hour. After washing, HRP-conjugated anti-HIS antibody (Miltenyi cat no. 130-092-785) was added. TMB substrate and acidic solution were used to develop colorimetric signal.

Assay [2] deals with T2, recombinant human LAG-3-Fc (human, UniProt P18627 23-450).
T2 construct: also called human LAG-3 (R&D Systems cat no. 2319-L3); LAG3 antigen
T2 sequence: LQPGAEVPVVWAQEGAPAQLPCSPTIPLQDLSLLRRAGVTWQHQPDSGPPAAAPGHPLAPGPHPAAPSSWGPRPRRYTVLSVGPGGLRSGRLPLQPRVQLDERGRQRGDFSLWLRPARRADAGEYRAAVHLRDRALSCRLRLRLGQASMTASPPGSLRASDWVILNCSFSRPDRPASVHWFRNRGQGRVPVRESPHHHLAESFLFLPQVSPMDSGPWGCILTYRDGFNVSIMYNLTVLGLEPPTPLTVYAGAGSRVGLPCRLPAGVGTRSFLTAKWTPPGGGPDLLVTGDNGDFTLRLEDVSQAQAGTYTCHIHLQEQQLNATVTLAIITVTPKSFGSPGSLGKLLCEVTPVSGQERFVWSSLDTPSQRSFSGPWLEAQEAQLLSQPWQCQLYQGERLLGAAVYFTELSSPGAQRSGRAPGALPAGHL
Described as above. The protocol: as §1

Assay [3] concerns the target T3, human LAG-3 domains 1-2-Fc (human, UniProt P18627 23-261, limits assumed).
T3 construct: Domains were identified as per Huard et al 1997 PNAS 94:5744-9; also called truncated LAG-3
T3 sequence: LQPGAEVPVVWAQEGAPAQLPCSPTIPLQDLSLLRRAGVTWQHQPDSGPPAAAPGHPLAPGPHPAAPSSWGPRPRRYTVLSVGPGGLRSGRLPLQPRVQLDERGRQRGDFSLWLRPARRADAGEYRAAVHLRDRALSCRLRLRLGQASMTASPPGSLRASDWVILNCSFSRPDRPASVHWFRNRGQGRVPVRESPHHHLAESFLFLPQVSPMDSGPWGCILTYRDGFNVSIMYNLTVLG
The description is as above. The protocol:
as §1

The target of assay [4] is T2, recombinant human LAG-3-Fc. Nature of the assay: BLI (Octet); human LAG-3-Fc captured on protein G biosensors, 1:1 fit. The method, then: (§2) Binding kinetics for multi-valent and bispecific VH were also measured in real-time bio-layer interferometer based biosensor Octet (ForteBio). […] All the binding studies were performed in HBS-ET Octet kinetics buffer. Biosensors were washed in Octet kinetics buffer in between different steps. […] The contact time for each of the association steps was 150 seconds and the dissociation step was 400 seconds. […] To compare the constructs, kinetic association (kₐ) and dissociation (kd) rate constants were determined by processing and fitting the data to a 1:1 binding model using ForteBio Analysis software.
On the technique in general: BLI is a label-free optical method that tracks binding on a fibre tip over time.

Assay [5] has as its target T2, recombinant human LAG-3-Fc. As to the kind of experiment: competition ELISA; LAG-3-Fc pre-incubated with VH, binding to coated alpha-synuclein. The text has this:
(§3) The plate was blocked with 3% Marvel skimmed milk powder in PBS. […] Wash steps were done 3 times with PBS 0.05% Tween. Colour was developed using TMB and 0.5M sulphuric acid solution.
On the technique in general: ELISA stands for enzyme-linked immunosorbent assay.

For assay [6], the target named is T1, Rhesus monkey LAG-3 (used as cynomolgus …). Nature of the assay: BLI (Octet); cynomolgus LAG-3 immobilised on ARG2 sensors, 1:1 fit. The protocol: as §2
For assay [7], the target named is T2, recombinant human LAG-3-Fc. As to the kind of experiment: BLI (Octet); human LAG-3-Fc amine-coupled to biosensor, VH in solution, 1:1 fit. The method, then:
Binding kinetics were measured in real-time bio-layer interferometer based biosensor Octet (ForteBio). […] All the binding studies were performed in HBS-ET Octet kinetics buffer. Biosensors were washed in Octet kinetics buffer in between different steps. A seven point, two-fold dilution series of each Humabody® VH was made with a top concentration of 1.6 μM. The contact time for each of the association steps was 150 seconds and the dissociation step was 300-400 seconds. Kinetic association (kₐ) and dissociation (kd) rate constants were determined by processing and fitting the data to a 1:1 binding model using ForteBio Analysis software.

Assay [8] concerns the target T4, CD4 (UniProt P01730 26-390).
T4 construct: also called CD4 (R&D Biotechne 514-CD)
Nature of the assay: ELISA, coated antigen, anti-HIS HRP detection. The protocol: as §1

Assay [9] deals with T5, mouse LAG-3 (mouse, UniProt Q61790 24-442).
T5 construct: The construct is not described; also called mouse LAG-3 (Sino Biological cat no 53069-M02H); Mouse LAG3 (R&D Biotechne cat 3328-L3)
T5 sequence (looked up): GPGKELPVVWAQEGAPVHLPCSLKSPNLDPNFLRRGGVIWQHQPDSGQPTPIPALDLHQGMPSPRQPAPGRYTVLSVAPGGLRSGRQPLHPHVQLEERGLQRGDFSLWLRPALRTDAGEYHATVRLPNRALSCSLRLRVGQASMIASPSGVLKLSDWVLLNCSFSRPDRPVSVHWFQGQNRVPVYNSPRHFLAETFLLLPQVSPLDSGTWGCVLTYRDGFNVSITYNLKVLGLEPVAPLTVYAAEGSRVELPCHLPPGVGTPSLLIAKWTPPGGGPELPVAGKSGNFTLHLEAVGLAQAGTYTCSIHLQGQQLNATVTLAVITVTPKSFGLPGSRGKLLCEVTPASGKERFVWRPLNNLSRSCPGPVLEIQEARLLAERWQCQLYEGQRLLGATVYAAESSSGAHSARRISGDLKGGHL
Nature of the assay: ELISA, coated antigen, anti-HIS HRP detection. The method, then: as §1

Assay [10] has as its target T6, human LAG-3 expressed on cells (human, UniProt P18627 23-525).
T6 construct: also called CHO cells expressing human LAG-3; CHO human LAG-3 cells
T6 sequence: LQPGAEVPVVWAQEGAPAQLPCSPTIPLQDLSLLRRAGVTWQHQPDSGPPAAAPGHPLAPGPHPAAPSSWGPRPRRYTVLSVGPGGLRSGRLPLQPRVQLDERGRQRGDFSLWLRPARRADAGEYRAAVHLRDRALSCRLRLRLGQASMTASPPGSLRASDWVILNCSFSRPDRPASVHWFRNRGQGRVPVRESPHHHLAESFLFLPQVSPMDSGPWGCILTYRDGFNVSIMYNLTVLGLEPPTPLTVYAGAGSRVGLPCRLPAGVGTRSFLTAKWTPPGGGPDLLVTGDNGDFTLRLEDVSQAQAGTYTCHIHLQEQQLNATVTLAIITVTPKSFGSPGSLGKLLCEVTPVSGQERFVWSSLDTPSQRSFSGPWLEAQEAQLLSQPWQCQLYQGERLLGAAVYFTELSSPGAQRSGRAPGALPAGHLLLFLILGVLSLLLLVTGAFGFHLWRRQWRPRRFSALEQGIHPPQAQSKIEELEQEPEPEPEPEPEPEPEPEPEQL
As to the kind of experiment: FMAT (Mirrorball) binding to CHO human LAG-3 cells, anti-His detection. From the text: Plates were read in the FL2 (502 nm-537 nm) and FL5 (677-800 nm) channels on the TTP Mirrorball plate reader following excitation at 488 nm and 640 nm. Data was gated on FL5 perimeter and peak intensity and the FL2 median mean fluorescence intensity of the gated data used for determination of VH binding.

Assay [11] addresses T3, human LAG-3 domains 1-2-Fc. As to the kind of experiment: BLI (Octet); human LAG-3 domains 1-2-Fc captured on protein G biosensors, 1:1 fit. The method, then:
as §2

In assay [12] the target is T6, human LAG-3 expressed on cells. As to the kind of experiment: cell-based or functional assay.
The target of assay [13] is T2, recombinant human LAG-3-Fc. Nature of the assay: competition ELISA; LAG-3-Fc pre-incubated with VH, binding to coated LSECtin.
From the text: as §3

B1: VH 1.1 (VHH)
VHH: EVQLVESGGGVVRPGGSLRLSCSASGFTFDDYGMSWVRQAPGKGLEWVSGIHWNGGNSGYADSVKGRFTISRDNAKNSLYLQMNSLRAEDTALYYCARIPREDCSSASCYTDAIDFWGPGTMVTVSS
notes: Human VH single domain antibody (Humabody) against LAG-3; also called VH single domain antibody 1.1; monovalent LAG-3 VH 1.1
With B1, the “ELISA signal over background” value in [1], in [2] and in [3] was > 10 fold over background throughout. The Kd in [4] was 0.0326 µM; in assay [6], 0.0256 µM; in assay [7] it was 0.0313 µM; in assay [11] it was 0.0675 µM. Moreover, the koff in assay [4] worked out at 0.000905 s⁻¹; in assay [6] it was 0.000222 s⁻¹; in [7], 0.00089 s⁻¹; in assay [11], 0.0011 s⁻¹. Moreover, the kon is 27800 M⁻¹ s⁻¹ in assay [4], 8650 M⁻¹ s⁻¹ in [6], 26200 M⁻¹ s⁻¹ in assay [7] and 16200 M⁻¹ s⁻¹ in [11]. Besides, the IC50 in [5] amounted to 0.045 µM; in assay [13], 0.21 µM. Besides, the binding result in assay [8] and in assay [9] was “no binding (tested: 10 µg/ml VH)” each time. This molecule came in with an EC50 in [10] of 0.0018 µM. In [12], the “EC50 (M), NFAT-Luciferase Reporter Gene assay (LAG-3:MHCII)” value is > 3.3e-07 M.

Broadly, the Kd is the equilibrium constant for the complex coming apart. Broadly, the koff is the first-order rate constant of dissociation. The kon is the second-order rate constant of association. Usually IC50 stands for the point on the concentration scale where inhibition reaches its midpoint. As usually defined, the EC50 is the concentration giving half of the maximal effect.

These data come from patent publication US20210015937A1 (CRESCENDO BIOLOGICS, published 2021).
